From patent US20150110766A1 (UNIVERSITY ULM, published 2015)

Tests used:
iC3b = biological target: T1, iC3b (UniProt P01024 23-667; P01024 749-1303; P01024 1321-1663); test: SPR (Biacore 2000), analyte over iC3b surface on CM5 chip
T1 construct: Made on the chip from deposited C3b with FI and the cofactor FH
Method: (§1) C3-fragment binding. Equal amounts of C3b (˜4000 RUs) (from Complement Technology, Tyler, Tex., USA) were immobilized onto 3 flow-cells (fc) of a CM5 chip (Biacore) by initial amine-coupling of a small amount of C3b onto fc 2-4 and further deposition of the vast majority of C3b molecules via its reactive thioester through an on-chip assembly of the AP-convertase (C3bBb) and subsequent exposure to and proteolytic activation of C3 (24). The surface was washed overnight with a buffer flow of 10 ul/min to allow stabilization of the physiologically prepared C3b-surface. […] C3b molecules on fc3 and fc4 were processed with FI in the presence of the cofactors FH or soluble complement receptor 1 (sCR1) to yield iC3b or C3dg (the latter as described in Morgan et al., 2011, supra), respectively. A dummy surface (fc1) was prepared by two consecutive cycles of surface activation with standard amine coupling reagents and quenching by ethanolamine.
(§2) Due to the physiological deposition of C3b and subsequent trimming with FI, both, the iC3b and the C3dg, surfaces likely carry miniscule amounts of residual C3b molecules, which were not readily accessible by FI. […] Deposition, proteolytic processing and all interactions studies were performed in HBS-P+buffer (i.e. 10 mM HEPES-buffered 150 mM saline (pH7.4), 0.005% (v/v) surfactant p20, 1 mM MgCl₂) at 25° C.

C3b = biological target: T2, C3b (UniProt P01024 749-1663; P01024 23-667); test: SPR (Biacore 2000), analyte over C3b deposited on CM5 chip
T2 construct: Immobilised on a CM5 chip; A small amount was amine-coupled and the majority deposited via the reactive thioester by on-chip AP convertase; also called complement fragment C3b; deposited C3b
Method: as §1, §2

C3dg = biological target: T3, C3dg (UniProt P01024 955-1303); test: SPR (Biacore 2000), analyte over C3dg surface on CM5 chip
T3 construct: Made on the chip from deposited C3b with FI and the cofactor sCR1
Method: as §1, §2

Measured: binding result

T3 sequence (P01024 955-1303 limits assumed): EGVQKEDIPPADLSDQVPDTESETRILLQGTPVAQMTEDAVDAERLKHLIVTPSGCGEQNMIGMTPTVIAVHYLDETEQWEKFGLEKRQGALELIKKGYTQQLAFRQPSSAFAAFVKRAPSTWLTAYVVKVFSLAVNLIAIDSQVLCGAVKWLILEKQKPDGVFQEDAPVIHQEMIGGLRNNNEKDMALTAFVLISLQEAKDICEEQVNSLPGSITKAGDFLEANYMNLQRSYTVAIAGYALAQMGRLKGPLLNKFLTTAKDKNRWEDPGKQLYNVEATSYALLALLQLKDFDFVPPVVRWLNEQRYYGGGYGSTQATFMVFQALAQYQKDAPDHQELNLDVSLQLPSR
T1 sequence (P01024 23-667, chain 1 of 3): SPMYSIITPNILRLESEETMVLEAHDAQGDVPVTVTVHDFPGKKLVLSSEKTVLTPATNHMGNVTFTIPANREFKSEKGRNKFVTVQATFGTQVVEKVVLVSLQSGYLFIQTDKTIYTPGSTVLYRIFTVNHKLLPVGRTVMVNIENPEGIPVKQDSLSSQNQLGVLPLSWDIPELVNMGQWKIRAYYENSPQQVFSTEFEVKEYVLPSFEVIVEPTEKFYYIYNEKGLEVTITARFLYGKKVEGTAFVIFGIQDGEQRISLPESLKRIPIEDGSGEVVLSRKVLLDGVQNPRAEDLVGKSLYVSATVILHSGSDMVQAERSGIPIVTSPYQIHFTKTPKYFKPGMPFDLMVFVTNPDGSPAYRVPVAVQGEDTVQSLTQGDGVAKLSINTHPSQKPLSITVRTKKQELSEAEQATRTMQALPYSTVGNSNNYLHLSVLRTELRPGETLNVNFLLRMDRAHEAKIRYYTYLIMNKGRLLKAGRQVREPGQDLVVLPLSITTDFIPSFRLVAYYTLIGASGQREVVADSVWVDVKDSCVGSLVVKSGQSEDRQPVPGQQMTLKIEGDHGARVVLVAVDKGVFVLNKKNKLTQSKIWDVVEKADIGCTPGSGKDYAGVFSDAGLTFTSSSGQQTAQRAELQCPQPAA
T1 sequence (P01024 749-1303, chain 2 of 3): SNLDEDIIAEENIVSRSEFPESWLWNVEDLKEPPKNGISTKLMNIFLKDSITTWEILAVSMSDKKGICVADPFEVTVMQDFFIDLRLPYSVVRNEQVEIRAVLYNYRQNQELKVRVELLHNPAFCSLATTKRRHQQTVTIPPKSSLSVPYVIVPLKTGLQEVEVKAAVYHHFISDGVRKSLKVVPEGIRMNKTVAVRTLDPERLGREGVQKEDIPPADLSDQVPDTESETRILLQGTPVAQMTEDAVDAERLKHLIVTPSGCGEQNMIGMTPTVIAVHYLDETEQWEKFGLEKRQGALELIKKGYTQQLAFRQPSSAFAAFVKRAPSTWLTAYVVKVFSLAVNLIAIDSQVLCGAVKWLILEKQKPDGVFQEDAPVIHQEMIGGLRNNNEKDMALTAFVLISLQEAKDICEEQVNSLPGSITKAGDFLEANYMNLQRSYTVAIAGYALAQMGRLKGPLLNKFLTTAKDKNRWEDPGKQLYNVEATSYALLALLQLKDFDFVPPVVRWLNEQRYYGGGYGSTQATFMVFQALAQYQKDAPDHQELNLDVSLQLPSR
T1 sequence (P01024 1321-1663, chain 3 of 3): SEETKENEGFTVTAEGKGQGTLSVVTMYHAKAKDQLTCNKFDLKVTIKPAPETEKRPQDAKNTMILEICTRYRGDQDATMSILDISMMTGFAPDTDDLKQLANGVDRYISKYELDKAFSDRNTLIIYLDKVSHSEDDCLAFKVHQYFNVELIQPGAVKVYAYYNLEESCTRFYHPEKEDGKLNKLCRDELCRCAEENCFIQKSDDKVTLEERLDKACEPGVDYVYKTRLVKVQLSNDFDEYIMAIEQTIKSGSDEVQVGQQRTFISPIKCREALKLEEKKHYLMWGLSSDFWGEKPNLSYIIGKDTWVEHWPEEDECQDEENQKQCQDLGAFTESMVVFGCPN
T2 sequence (P01024 749-1663 limits assumed, chain 1 of 2): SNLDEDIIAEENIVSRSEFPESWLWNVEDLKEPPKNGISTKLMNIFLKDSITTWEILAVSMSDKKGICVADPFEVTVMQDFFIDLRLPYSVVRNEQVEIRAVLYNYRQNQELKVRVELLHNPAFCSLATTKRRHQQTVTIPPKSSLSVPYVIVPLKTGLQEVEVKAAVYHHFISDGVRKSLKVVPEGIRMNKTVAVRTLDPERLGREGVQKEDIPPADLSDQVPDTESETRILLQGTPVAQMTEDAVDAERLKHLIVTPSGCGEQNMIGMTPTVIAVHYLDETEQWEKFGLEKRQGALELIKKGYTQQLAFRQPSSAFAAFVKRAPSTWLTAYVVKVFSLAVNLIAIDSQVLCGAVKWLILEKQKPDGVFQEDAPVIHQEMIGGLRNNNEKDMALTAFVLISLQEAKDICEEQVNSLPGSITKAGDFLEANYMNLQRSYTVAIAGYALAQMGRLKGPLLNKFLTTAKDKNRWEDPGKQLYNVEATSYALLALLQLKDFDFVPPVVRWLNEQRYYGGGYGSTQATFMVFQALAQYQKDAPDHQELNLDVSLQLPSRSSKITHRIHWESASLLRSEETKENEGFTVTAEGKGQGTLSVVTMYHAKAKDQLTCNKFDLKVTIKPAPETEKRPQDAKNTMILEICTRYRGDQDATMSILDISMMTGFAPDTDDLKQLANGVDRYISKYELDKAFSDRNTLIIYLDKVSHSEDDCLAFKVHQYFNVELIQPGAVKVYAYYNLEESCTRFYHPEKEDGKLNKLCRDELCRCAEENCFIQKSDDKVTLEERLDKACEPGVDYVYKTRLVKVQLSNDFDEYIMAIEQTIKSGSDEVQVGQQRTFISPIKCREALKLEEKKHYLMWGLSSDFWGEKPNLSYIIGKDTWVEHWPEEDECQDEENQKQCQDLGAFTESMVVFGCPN
T2 sequence (P01024 23-667 limits assumed, chain 2 of 2): as the sequence (P01024 23-667, chain 1 of 3) above

B1: FH15-18 (other, UniProt P08603 868-1104, looked up)
chain: IPCSQPPQIEHGTINSSRSSQESYAHGTKLSYTCEGGFRISEENETTCYMGKWSSPPQCEGLPCKSPPEISHGVVAHMSDSYQYGEEVTYKCFEGFGIDGPAIAKCLGEKWSHPPSCIKTDCLSLPSFENAIPMGEKKDVYKAGEQVTYTCATYYKMDGASNVTCINSRWTGRPTCRDTSCVNPPTVQNAYIVSRQMSKYPSGERVRYQCRSPYEMFGDEEVMCLNGNWTEPPQCKD
notes: domain: CCPs 15-18; Negative control analyte in SPR
no binding: iC3b | C3b | C3dg
